From patent US20050037969A1 (ARBOR VITA, published 2005)
Ends that are not written are not given here. * marks the point of attachment. Biotin = O=C1N[C@H]2[C@H](CS[C@H]2CCCCC(=O)*)N1

How the values were obtained:
Experiment in all cases: A/G assays
[1] = molecular target: T1, KIAA0807 (PDZ domain)-GST fusion protein (human, UniProt Q6P0Q8 1104-1192)
T1 construct: also called K807; KIAA807; not shown: glutathione S-transferase encoded by vector pGEX-3X (Pharmacia)
T1 sequence: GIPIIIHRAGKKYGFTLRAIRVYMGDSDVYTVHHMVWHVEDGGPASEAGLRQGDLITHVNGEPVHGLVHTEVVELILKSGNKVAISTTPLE

[2] = molecular target: T2, NSP PDZ-GST fusion protein (Homo sapiens (Human), UniProt Q92743 370-466)
T2 construct: The label NSP is not explained in the excerpts
T2 sequence (Q92743 other isoform, or with tags, fused parts or gaps limits assumed): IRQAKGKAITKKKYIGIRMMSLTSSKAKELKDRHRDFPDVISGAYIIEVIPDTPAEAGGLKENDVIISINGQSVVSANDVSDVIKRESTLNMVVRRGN

[3] = molecular target: T3, GST-cytohesin binding protein PDZ domain fusion protein (Homo sapiens (Human), UniProt O60759 74-165)
T3 construct: also called CBP; not shown: glutathione S-transferase encoded by vector pGEX-3X (Pharmacia)
T3 sequence: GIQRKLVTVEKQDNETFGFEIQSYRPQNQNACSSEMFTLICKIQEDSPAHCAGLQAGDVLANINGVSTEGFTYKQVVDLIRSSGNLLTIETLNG

[4] = molecular target: T4, X11β PDZ-GST fusion protein (Rattus norvegicus (Rat), UniProt O35431 560-745)
T4 construct: Order of GST and PDZ part and limits not seen in the excerpts
T4 chain: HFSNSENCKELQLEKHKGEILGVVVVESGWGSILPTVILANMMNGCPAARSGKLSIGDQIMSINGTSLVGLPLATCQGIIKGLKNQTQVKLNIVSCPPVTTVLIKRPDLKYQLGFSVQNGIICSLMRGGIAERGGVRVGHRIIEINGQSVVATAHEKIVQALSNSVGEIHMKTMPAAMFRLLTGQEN

[5] = molecular target: T5, GST-KIAA0303 PDZ domain fusion protein (Homo sapiens (Human), UniProt O15021 1138-1228)
T5 construct: also called K303; not shown: glutathione S-transferase encoded by vector pGEX-3X (Pharmacia)
T5 sequence: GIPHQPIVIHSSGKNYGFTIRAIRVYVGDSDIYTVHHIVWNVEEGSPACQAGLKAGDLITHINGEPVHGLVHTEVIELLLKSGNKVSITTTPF

[6] = molecular target: T6, GST-TAX-IP40 PDZ domain fusion protein (human, UniProt Q6B4M5 150-252 (rat entry))
T6 construct: also called TAX40; not shown: glutathione S-transferase encoded by vector pGEX-3X (Pharmacia)
T6 sequence: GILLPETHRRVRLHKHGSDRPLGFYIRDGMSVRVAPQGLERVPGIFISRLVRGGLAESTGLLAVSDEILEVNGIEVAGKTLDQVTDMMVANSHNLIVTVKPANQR

[7] = molecular target: T7, MINT3 PDZ-GST fusion protein
T7 construct: Order of GST and PDZ part and limits not seen in the excerpts
T7 chain: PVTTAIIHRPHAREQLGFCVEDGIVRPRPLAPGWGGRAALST

[8] = molecular target: T8, GST-RGS12 PDZ domain fusion protein (human, UniProt O14924 17-85)
T8 construct: also called human regulator of G-protein signalling 12; not shown: glutathione S-transferase encoded by vector pGEX-3X (Pharmacia)
T8 sequence: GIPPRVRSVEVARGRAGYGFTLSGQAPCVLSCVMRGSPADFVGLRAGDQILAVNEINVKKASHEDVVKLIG

[9] = molecular target: T9, ConEn PDZ-GST fusion protein (Homo sapiens (Human), UniProt Q969H4 193-287)
T9 construct: The label ConEn is not explained in the excerpts
T9 sequence: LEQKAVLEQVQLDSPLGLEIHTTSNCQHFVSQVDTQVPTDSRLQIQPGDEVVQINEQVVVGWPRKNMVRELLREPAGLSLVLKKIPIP

[10] = molecular target: T10, GEF PDZ-GST fusion protein (Homo sapiens (Human), UniProt Q8TEU7 293-400)
T10 construct: The label GEF is not explained in the excerpts
T10 sequence: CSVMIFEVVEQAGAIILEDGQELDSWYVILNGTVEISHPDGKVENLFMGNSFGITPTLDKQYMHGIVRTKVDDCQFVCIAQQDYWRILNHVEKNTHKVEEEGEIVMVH

[11] = molecular target: T11, GST-DLG5 (p-dlg) PDZ domain fusion protein (Human, UniProt Q8TDM6 1343-1583)
T11 construct: also called Human discs large protein p-dlg; not shown: glutathione S-transferase encoded by vector pGEX-3X (Pharmacia)
T11 sequence: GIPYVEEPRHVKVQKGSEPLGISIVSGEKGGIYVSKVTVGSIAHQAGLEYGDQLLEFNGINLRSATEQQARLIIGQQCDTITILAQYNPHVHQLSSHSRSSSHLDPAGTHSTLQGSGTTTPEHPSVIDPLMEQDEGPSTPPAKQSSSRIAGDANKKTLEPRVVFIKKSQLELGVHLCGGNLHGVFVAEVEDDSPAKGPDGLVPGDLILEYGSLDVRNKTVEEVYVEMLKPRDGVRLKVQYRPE

[12] = molecular target: T12, GST-AF6 PDZ domain fusion protein (Homo sapiens (Human), UniProt P55196 1001-1093)
T12 construct: also called af-6 protein; not shown: glutathione S-transferase encoded by vector pGEX-3X (Pharmacia)
T12 sequence: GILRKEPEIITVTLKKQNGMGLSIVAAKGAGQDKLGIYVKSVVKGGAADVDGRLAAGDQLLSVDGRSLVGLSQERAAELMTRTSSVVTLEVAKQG

[13] = molecular target: T13, TAX-IP2L PDZ-GST fusion protein (Homo sapiens (Human), UniProt Q8TF64 107-197)
T13 construct: Order of GST and PDZ part and limits not seen in the excerpts
T13 sequence: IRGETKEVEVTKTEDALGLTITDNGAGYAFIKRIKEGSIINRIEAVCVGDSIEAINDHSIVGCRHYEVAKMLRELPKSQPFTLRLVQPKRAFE

[14] = molecular target: T14, GST-CASK PDZ domain fusion protein (Homo sapiens, UniProt O14936 486-575)
T14 construct: also called Homo sapiens CASK protein
T14 sequence: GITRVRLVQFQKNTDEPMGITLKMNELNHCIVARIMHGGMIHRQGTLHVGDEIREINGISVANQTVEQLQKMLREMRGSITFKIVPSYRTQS

[15] = molecular target: T15, K858 PDZ-GST fusion protein (Homo sapiens (Human), UniProt Q8WWI1 1038-1131)
T15 construct: Order of GST and PDZ part and limits not seen in the excerpts
T15 sequence: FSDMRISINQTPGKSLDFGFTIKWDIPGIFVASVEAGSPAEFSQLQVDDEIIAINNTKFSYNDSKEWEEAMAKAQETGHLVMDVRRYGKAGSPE

Measured: binding result

Biotin-ENLAPVTTFGKTNGYIA (also called CD148 (DEP-1)) [CD148 C-terminal peptide AA19L, biotinylated]
no binding: all assays above

Biotin-SSKSKSSEESQTFFGLYKL (not fully specified, also called FasLigand; Fas ligand) [FasL C-terminal peptide AA23L-M, biotinylated]
no binding: all assays above

B1: CD62E C-terminal peptide AA48L (peptide)
peptide: Biotin-SSSQSLESDGSYQKPSYIL
notes: Only the last four residues are seen in the excerpts
no binding: all assays above

Biotin-ISKATPALPTVSISSSAEV (also called AA1L-R) [Clasp-1 C-terminal peptide AA1L, biotinylated]
no binding: all assays above

B2: CD114 (G-CSFR) C-terminal peptide AA27L (peptide)
peptide: Biotin-LNFPLLQGIRVHGMEALGSF
notes: as for B1
no binding: all assays above

B3: CC CKR-3 C-terminal peptide AA43L (peptide)
peptide: Biotin-LERTSSVSPSTAEPELSIVF
notes: as for B1
no binding: all assays above
